In patent publication US20180346592A1 (MOGAM INSTITUTE FOR BIOMEDICAL RESEARCH, published 2018):

How the values were obtained:
[1] = target: T1, GPC3 on the surface of hepatic cancer cell lines (SK-Hep1-GPC3 transfectant, HepG2, Huh7, Hep3B, SNU398) (human, UniProt P51654 25-554); assay: FACS, HepG2 cells, 1 ug antibody; lower left panel (Human naive library)
T1 construct: Species is not restated for the cells (hepatic cancer cell lines, or SK-Hep1 transfected with pCMV/GPC3); also called glypican 3

[2] = target: T1, GPC3 on the surface of hepatic cancer …; assay: FACS, SK-Hep1-GPC3 #9 cells, 1 ug antibody; lower left panel
Experimental: (§1) After detaching SK-Hep1-GPC3 cells by adding a TrypLE Express solution thereto, the detached SK-Hep1-GPC3 cells were put into a 50 mL tube and centrifuged at room temperature and 2000 rpm for 3 minutes to remove a culture medium, followed by washing with PBS once. The resultant was suspended using a FACS buffer, transferred to a round bottom tube, and centrifuged at room temperature and 2000 rpm for 3 minutes. A supernatant was removed, and the resultant was suitably dissolved using the FACS buffer so as to have a concentration of 4×10⁵ ea/mL. Then, a candidate antibody (1 μg) was added thereto at 4° C., and in an […] control group, a human IgG (1m, Sigma) was added instead of the candidate antibody. After 1 hour, the resultant was washed with the FACS buffer two times, a goat anti-human IgG antibody and FITC conjugated were added thereto at an amount of 1 μL per sample and bound thereto at 4° C. for 30 minutes. After collecting cells by centrifugation at 2000 rpm for 3 minutes, the cells were re-suspended by adding a fixation buffer (500 μL), and measured using a FACS calibur (FIG. 5).

[3] = target: T2, recombinant human GPC3 (Cat. No. 2119-GP-050, R&D systems) purified from HEK293 cells (human, UniProt P51654 25-559); assay: SPR, Biacore T-200, GPC3 immobilised on CM5 chip, antibody flowed 0.078-5 nM
T2 construct: Bought protein
Experimental: Quantitative binding capacity (affinity) of GX102 and GX270 clone antibodies, purified anti-GPC3 antibodies, to recombinant human GPC 3 was measured using a Biacore T-200(GE Healthcare, U.S.) biosensor. After immobilizing GPC3 (Cat. No. 2119-GP-050, R&D systems) purified from HEK293 cells onto a CM5 chip (GE Healthcare) to an Rmax of 200 using an amine-carboxyl reaction, the GX102 or GX270 antibody sequentially diluted in a HBS-EP buffer solution (10 mM HEPES, pH7.4, 150 mM NaCl, 3 mM EDTA, 0.005% surfactant P20) was flowed at a flow rate of 30 μL/min in a concentration range of 0.078 nM to 5 nM for an association time of 120 seconds and a dissociation time of 1800 seconds. Dissociation of the antibody bound to GPC3 was induced by flowing 10 mM Glycine-HCl (pH1.5) at a flow rate of 30 μL/min for 30 seconds (Table 3). Affinity was obtained as kinetic rate constants (Kₒₙ and Koff) and an equivalent dissociation constant (KD) using a Biacore T-200 evaluation software (Table 4).

[4] = target: T1, GPC3 on the surface of hepatic cancer …; assay: FACS, SK-Hep1-GPC3 cells, 1 ug antibody; lower right panel
Experimental: as §1

[5] = target: T1, GPC3 on the surface of hepatic cancer …; assay: FACS, HepG2 cells, 1 ug antibody; lower right panel

| Binder | Mean, FL2-H [1] | Mean, FL2-H [2] | Kd [3] [nM] | Mean, FL2-H [4] | Mean, FL2-H [5] |
| --- | --- | --- | --- | --- | --- |
| clone GN337 (scFv, V domains shown, scFv library clone tested as culture supernatant) VH: EVQLVESGPGLVKPSQTLSLTCTVSGGSVSSGGYHWNWIRQHPGKGLEWIGYIFNSGNTDYNPSLRSRLTISQDTSKNQFSLKLSSVTAADTAVYYCARHRSRLLRWFDYWGQGTMVTVSS VL: DVVLTQSPSSLSAFVGDRVTITCQASQDIRKYLNWFQQKPGKAPKLLIYDASTLETGVSSRFSGSGSGTHFNLVISSLEPEDSATYYCQQHDFVPRTFGQGTKLEIKR | 30.8 | 3.81 | – | – | – |
| GX270 clone antibody (purified anti-GPC3 antibody) (antibody, V domains shown, Purified antibody; also called GX270 antibody; GX270 candidate antibody) VH: QVQLVQSGAEVKKPGASVKVSCKTSGYTFTSSYMHWVRQAPGQGLEWMGIINPNSRGTNYAQKFQGRVTMTSDTSISTAYMELSSLISDDTAVYYCASSSGDYPDYWGQGTLVTVSS VL: SYELTQPPSVSVSPGQTARIACSGDALPKHYAYWYQQKSGQAPVLVVYEDKKRPAGIPERFSGSSSGTVATLTISGAQVEDEAHYYCYSTDTSGNHRVFGGGTKLTVLG | – | – | 0.07 | 174 | 14.5 |
| clone GX122 (scFv, V domains shown, scFv library clone tested as culture supernatant) VH: EVQLVESGAEVKKPGASVKVSCKASGYTFTSYYMHWVRQAPGQGLEWMGIINPSGGSTSYAQKFQGRVTMTRDTSTSTVYMELSSLRSEDTAVYYCARDGGSSPDIWGQGTMVTVSS VL: SYELTQPPSVSVSPGQTARITCSGDALPKKYAYWYQQKSGQAPVLVIYEDKKRPSEIPERFSGSSSGTMATLTITGAQVDDEADYYCYSIDRSGSRGVFGGGTKLTVLG | 52.2 | 11.6 | – | – | – |
| GX102 clone antibody (purified anti-GPC3 antibody) (antibody, V domains shown, Purified antibody; also called GX102 antibody; GX102 candidate antibody) VH: not shown VL: GQSVLTQPPSASETPGQKVTISCSGSSSNIGTNHVFWYQQLPGTAPKLLIYRNNLRPSGVPDRFSGSKSGTSASLAISGLRSEDEADYYCAAWDDSLSWVFGGGTKLTVLG | – | – | 0.0092 | 317 | 18.7 |
